Reference: publication doi:10.64898/2025.12.22.696113
pKd: −log10 of the molar value.

What follows are substances tested against extracellular domain of Arabidopsis thaliana HAESA-LIKE 3 (HSL3, AT5G25930, residues 23–662) (Arabidopsis thaliana) (assay: SPR).

| pKd | kon | Substance |
| --- | --- | --- |
| 5.70 | 1140 M⁻¹ s⁻¹ | CTNIP4^48–70 (peptide) |
| 5.41 | 568 M⁻¹ s⁻¹ | CTNIP4^51–70 (peptide) |
| 5.28 | 498 M⁻¹ s⁻¹ | CTNIP4^54–70 (peptide) |
